For experiment [1], the target named is T1, cynomolgus monkey BDCA2 (full-length, cell surface, E73 SNP form) (cynomolgus monkey, UniProt Q8WTT0 1-213 (human entry)).
T1 construct: also called cyno BDCA2; surface cynomolgus monkey BDCA2
T1 chain: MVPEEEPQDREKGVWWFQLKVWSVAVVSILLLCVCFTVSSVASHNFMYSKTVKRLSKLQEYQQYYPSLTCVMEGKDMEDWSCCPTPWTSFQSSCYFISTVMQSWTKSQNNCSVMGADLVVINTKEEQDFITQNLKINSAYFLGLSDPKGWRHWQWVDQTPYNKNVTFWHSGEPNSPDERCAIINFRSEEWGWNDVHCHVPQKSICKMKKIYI
The experiment can be described thus: flow cytometry, whole blood pDCs of cynomolgus monkey donor 1, anti-human IgG PE secondary. As to the method:
(§1) The MFI of PE was calculated in FlowJo software, and the percent of maximal binding, using the 40 μg/mL point as 100%, was computed. Each line represents one individual cynomolgus monkey, for a total of twelve cynomolgus monkeys, and graphed using GraphPad Prism software (four-parameter nonlinear regression curve fit of log-transformed data). Staining was repeated once a week for three weeks total.
(§2) The maximal values were taken from the values at the plateau in each assay (FIGS. 24 and 25).
(§3) MFI of PE was calculated with FlowJo software, and EC50 curves were generated in GraphPad Prism software.
A general note: A flow cytometer gives signals particle by particle.

Experiment [2] concerns the target T1, cynomolgus monkey BDCA2 (full-length, …). The experiment is described as follows: indirect method: flow cytometry of pDCs in cynomolgus whole blood, unlabelled BIIB059 titrated, free BDCA2 detected with the competitor BIIB059-A647 at 10 ug/mL [panel Cynomolgus monkey 1]. On the procedure: The MFI of PE (open symbols, graphed on the left y-axis) or A647 (closed symbols, graphed on the right y-axis) was calculated in FlowJo software, and graphed using GraphPad Prism software (four-parameter nonlinear regression curve fit of log-transformed data).
as §2

Experiment [3] deals with T2, rat Clec4b2 (full-length, cell surface) (rat).
T2 construct: 293E cells co-transfected with rat FcεRIγ; Genbank NM_001005896; also called surface rat Clec4b2; closest rat homolog of human BDCA2
T2 chain: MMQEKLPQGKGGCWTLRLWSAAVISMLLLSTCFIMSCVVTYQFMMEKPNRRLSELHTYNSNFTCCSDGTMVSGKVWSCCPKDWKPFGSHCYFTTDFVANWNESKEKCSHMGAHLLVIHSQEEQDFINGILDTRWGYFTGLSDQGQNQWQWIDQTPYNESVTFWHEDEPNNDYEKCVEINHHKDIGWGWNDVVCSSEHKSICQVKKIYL
The experiment is described as follows: dilution titration direct FACS on transiently transfected 293E cells.

Experiment [4] has as its target T1, cynomolgus monkey BDCA2 (full-length, …). The experiment can be described thus: flow cytometry, whole blood pDCs of cynomolgus monkey donor 3, anti-human IgG PE secondary. On the procedure:
as §1, §2, §3

The target of experiment [5] is T3, monomeric huBDCA2 ectodomain (human, UniProt Q8WTT0 45-213).
T3 construct: Prepared by proteolytic cleavage of the purified muIgG2a Fc-huBDCA2 fusion protein (pEAG2423); also called human BDCA2 ectodomain; human BDCA2 ECD
T3 sequence: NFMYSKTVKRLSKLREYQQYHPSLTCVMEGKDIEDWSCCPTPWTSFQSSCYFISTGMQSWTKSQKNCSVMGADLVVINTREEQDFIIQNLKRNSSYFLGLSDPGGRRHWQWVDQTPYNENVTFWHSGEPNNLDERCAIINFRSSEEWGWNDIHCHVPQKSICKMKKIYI
The experiment can be described thus: Octet, mAb from conditioned medium on anti-human Fc tips, monomeric huBDCA2 in solution. As to the method: Backmutation to the unpaired cysteine, i.e., S95C, was constructed by site-directed mutagenesis producing plasmid pYL749. Variants S95T, S95A, and S95V were constructed by site-directed mutagenesis producing plasmids pYL750, pYL751, and pYL752, respectively. The full-length light chain cDNA sequences in the resultant plasmids were confirmed by DNA sequencing. […] Conditioned medium was harvested at 2 days post-transfection. […] Conditioned medium containing the C95 variant mAbs was assayed by Octet for binding to human BDCA2 ectodomain. Antibodies from conditioned medium from transiently transfected cells were bound to anti-human Fc tips, then monomeric huBDCA2 was flowed over the Octet tips, to examine binding and dissociation.
For orientation: Biolayer interferometry detects binding as a change in optical thickness at a sensor tip.

Experiment [6] has as its target T1, cynomolgus monkey BDCA2 (full-length, …). The experiment can be described thus: flow cytometry, whole blood pDCs of cynomolgus monkey donor 6, anti-human IgG PE secondary. As to the method:
as §1, §2, §3

Another experiment addresses T4, human C1q (human, UniProt P02745 23-245; P02746 28-253; P02747 29-245).
T4 construct: also called complement component C1q
The experiment is described as follows: C1q ELISA: antibody coated in a dilution series, human C1q at 2 µg/mL, read at 450 nm; column C (midpoint, the C value of paragraph 430) of the printed 4-parameter fit; the axis reads Concentration with no unit, the unit of the coated antibody is from the legend paragraph 61; A 0.061, B 2.527, D 2.212, R^2 1. (An ELISA detects its analyte on a solid surface through an enzyme-linked reagent.)

Consider one molecule from patent US20180362652A1 (Biogen, published 2018).

By EC50 is commonly meant the concentration that produces a half-maximal response. In general, Kd refers to the concentration at which binding is half-saturated.

T4 sequence (P02745 23-245 limits assumed, chain 1 of 3): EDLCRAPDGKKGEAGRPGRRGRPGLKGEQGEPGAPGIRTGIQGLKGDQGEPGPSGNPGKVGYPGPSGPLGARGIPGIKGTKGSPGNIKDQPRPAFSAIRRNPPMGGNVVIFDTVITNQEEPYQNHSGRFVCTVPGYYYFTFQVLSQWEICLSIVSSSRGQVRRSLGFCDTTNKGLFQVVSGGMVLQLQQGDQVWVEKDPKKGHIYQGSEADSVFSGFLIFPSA
T4 sequence (P02746 28-253 limits assumed, chain 2 of 3): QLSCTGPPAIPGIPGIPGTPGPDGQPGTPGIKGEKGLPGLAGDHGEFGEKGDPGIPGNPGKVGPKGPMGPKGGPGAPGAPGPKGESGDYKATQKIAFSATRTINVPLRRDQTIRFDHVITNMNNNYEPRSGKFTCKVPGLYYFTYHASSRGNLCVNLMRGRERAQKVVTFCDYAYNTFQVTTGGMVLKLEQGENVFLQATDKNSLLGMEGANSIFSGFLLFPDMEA
T4 sequence (P02747 29-245 limits assumed, chain 3 of 3): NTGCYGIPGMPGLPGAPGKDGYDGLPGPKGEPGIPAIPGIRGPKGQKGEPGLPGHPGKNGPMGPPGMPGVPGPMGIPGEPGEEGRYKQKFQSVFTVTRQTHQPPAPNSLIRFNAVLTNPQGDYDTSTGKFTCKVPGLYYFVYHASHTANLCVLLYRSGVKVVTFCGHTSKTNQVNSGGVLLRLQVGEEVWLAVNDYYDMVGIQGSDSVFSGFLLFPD

B1: BIIB059 (antibody, human IgG1, kappa)
heavy: not shown
light: DIQLTQSPSSLSASVGDRVTITCKASQSVDYDGDSYMNWYQQKPGKAPKLLIYAASTLESGVPSRFSGSGSGTDFTLTISSLQPEDFATYYCQQANEDPRTFGQGTKVEIKRTVAAPSVFIFPPSDEQLKSGTASVVCLLNNFYPREAKVQWKVDNALQSGNSQESVTEQDSKDSTYSLSSTLTLSKADYEKHKVYACEVTHQGLSSPVTKSFNRGEC
notes: Humanized IgG1 kappa, mature chains; in some assays labelled with Alexa647; also called hu24F4 H4/L1 C95A; H4-L1-C95A (YL751/YL746)
On to B1, for which the EC50 in experiment [1] came out at 0.81 µg/mL; in experiment [4] it was 0.95 µg/mL; in experiment [6], 1.3 µg/mL; with human C1q, 2.5 µg/mL. Also, the “IC50 (read off the curve)” value in experiment [2] is roughly 1 µg/mL. In experiment [3], the binding result was “no binding”. Further, the Kd in experiment [5] was 0.261 nM.
